± gives the standard deviation.
Assay: protein stability index of a GFP-peptide fusion (GPS, HEK-293T) (PSI 1-6); higher = more stable
[1] = treatment: DMSO, c terminus: a fixed tail appended
[2] = treatment: MLN4924 1 uM, 8 h, c terminus: a fixed tail appended
[3] = treatment: DMSO, c terminus: native
[4] = treatment: MLN4924 1 uM, 8 h, c terminus: native
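Also: 24-mer peptide tiles fused after GFP, lentivirally expressed, FACS-sorted into six equal bins by GFP/DsRed ratio, decoded by Illumina sequencing, PSI is the read-weighted mean bin number.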

Row | Sequence | protein stability index [1] | protein stability index [2] | protein stability index [3] | protein stability index [4]
1 | GYSLADWVCLAYFTSGFNAAALDY [SPACA3] | 3.33 ± 0.44 | 2.98 ± 0.13 | – | –
2 | SVKSKIGELEDESLNRACHQQNKI [CEP70] | 4.63 ± 0.41 | 4.7 ± 0.25 | – | –
3 | SVEYGYRPGATAVPTPLTNVQILL [FCHO1] | 2.06 ± 0.62 | 2.03 ± 0.48 | – | –
4 | SQPGNAVIDKETIDLLAFTSVAEL [SDE2] | 3.43 ± 0.3 | 3.46 ± 0.32 | – | –
5 | SFPATLETQEQDVDLVQKYLEKYY [MMP1] | 3.82 ± 0.12 | 4.09 ± 0.2 | – | –
6 | SRSTLECAYRTHLVAGIGFYQHLL [SMG5] | 2.9 ± 0.35 | 2.83 ± 0.57 | – | –
7 | DIISTVEFNHTGELLATGDKGGRV [PPP2R2B] | 3.16 ± 0.43 | 3.25 ± 0.5 | – | –
8 | AAAAAAASAAAATAAFTTAKAAAL [SPAG8] | 2.33 ± 0.26 | 2.62 ± 0.75 | – | –
9 | QVIHPQEFRRWRDTGVAFELRDSS [DNAAF3] | 3.29 ± 0.36 | 3.31 ± 0.32 | – | –
10 | VIDLAESLVADNCVTLVWRMPDED [FSD1] | 2.35 ± 0.33 | 2.79 ± 0.27 | – | –
11 | NAAHSLLSTNDKTIKLWKITERDK [PPP2R2C] | 3.68 ± 0.085 | 3.82 ± 0.27 | – | –
12 | GPGTPTGPSLPSKRESPGVGGGSG [ZBTB22] | 5.14 ± 0.31 | 4.96 ± 0.27 | – | –
13 | DCLQGIRKGLQHGFFDFETFDVDE [CDC14A] | 3.33 ± 0.3 | 3.62 ± 0.61 | – | –
14 | RPAFVRVRRGHSHLAPSEAKAADS | 4.35 ± 0.1 | 4.45 ± 0.16 | – | –
15 | KLFYFKIWAFLDVSFVERILKSQK [FBXO39] | 2.62 ± 0.74 | 2.47 ± 0.5 | – | –
16 | IIYVASNHFVWRLIPVPMATQIQQ [VPS39] | 3.19 ± 0.35 | 3.09 ± 0.65 | – | –
17 | YINFRHLYKQRRRRYGQKKKKIH [HACD3] | – | – | 2.12 ± 0.29 | 2.74 ± 0.55
18 | ILDSLLFFYDCSNNPISEHFHPTV [TENT5C] | 3.15 ± 0.71 | 3.13 ± 0.68 | – | –
19 | NSTGGDCFYRGYTSGVAAVQDWYH [SCNN1D] | 2.36 ± 0.16 | 2.43 ± 0.5 | – | –
20 | VRPGTPPDFILKVVIDKHPVRFFV [CTDNEP1] | 2.95 ± 0.49 | 2.92 ± 0.42 | – | –
21 | SSCHFARDSSFLISGGFDRTVAIW [WDR88] | 2.42 ± 0.45 | 2.51 ± 0.55 | – | –
22 | PYQVNGVNPAYPESRYTSDYFISY [ETS1] | 2.18 ± 0.18 | 2.27 ± 0.21 | – | –

Row | Sequence | protein stability index [1] | protein stability index [2] | protein stability index [3] | protein stability index [4]
23 | VVHWVQSIGLRDYAGNLHESGVHG [PPFIA4] | 2.56 ± 0.27 | 1.93 ± 0.36 | – | –
24 | NNDDDEDEDDEDEDEDEDEDEDED [TAF7L] | 5.57 ± 0.15 | 5.55 ± 0.23 | – | –
25 | LIRYICGVVHPSNEVLSSDILPRW [INTS3] | 2.66 ± 0.26 | 2.56 ± 0.49 | – | –
26 | LQLLREENRALQQLLEQKQAYWAQ [CBY2] | 2.62 ± 0.18 | 2.94 ± 0.31 | – | –
27 | LATQSLTVETCRALGKLLPRETLC [LRRC45] | 2.44 ± 0.49 | 2.48 ± 0.45 | – | –
28 | NVPRICGVCGDRATGFHFNAMTCE [VDR] | 2.83 ± 0.39 | 2.73 ± 0.2 | – | –
29 | LQAKALQLIVTARTTRGLDPLFGM [INTS4] | 2.88 ± 0.6 | 2.59 ± 0.66 | – | –
30 | SSSVETGPSVSEPPGLPRVSAYVD [SPATS1] | 4.77 ± 0.35 | 4.72 ± 0.21 | – | –
31 | PSSSSIHNGDMEKILLDAQHESGQ [BNIP3L] | 5.12 ± 0.14 | 5.27 ± 0.096 | – | –
32 | SEDRRSRHCPYLDTINRSVLDFDF [USP39] | 3.18 ± 0.074 | 3.44 ± 0.3 | – | –
33 | IDKNTQLTLQVYREQADSCREQLD [TRIM14] | 4.58 ± 0.21 | 4.18 ± 0.79 | – | –
34 | LHYAAASDMDRNKTILGNAHDNSE [ANKRD44] | 4.76 ± 0.15 | 4.9 ± 0.044 | – | –
35 | PPELTASRQSFRMAMGNPSEFFVD [DVL3] | 4.17 ± 0.21 | 3.83 ± 0.21 | – | –
36 | HECILPFVQVKGNFARLQTCISEL [M1AP] | 2.21 ± 0.11 | 2.21 ± 0.13 | – | –
37 | GSQLEDQALRGLEGYTWRVAQLED [ZSWIM9] | 3.98 ± 0.55 | 4.25 ± 0.2 | – | –
38 | PDTQENRRMFSSLFQFSNCSQGQQ [CCDC3] | 3.67 ± 0.19 | 3.51 ± 0.17 | – | –
39 | SSTQLCVLNDRFQRQKYLSLQQMQ [NANOGP8] | 2.65 ± 0.14 | 2.83 ± 0.1 | – | –
40 | KSSKYGEGHQAWIVGIVEKGNRTA [SEPHS2] | 2.56 ± 0.19 | 2.56 ± 0.42 | – | –
41 | IYSVVDLGMYQKVTSYCRSATLVG [SLC19A2] | 2.69 ± 0.42 | 2.74 ± 0.69 | – | –
42 | KNRSFDIDAIYSVIDDAKQYVYIA [PLD5] | 2.75 ± 0.55 | 2.47 ± 0.71 | – | –
43 | VGWWALLALVTLLSFATRFHRLDE [POMT2] | 3.42 ± 0.39 | 2.98 ± 0.39 | – | –
44 | VIYCLGGYDGLNILNSVEKYDPHT [KLHL12] | 2.39 ± 0.54 | 2.18 ± 0.39 | – | –

Row | Sequence | protein stability index [1] | protein stability index [2] | protein stability index [3] | protein stability index [4]
45 | PQVPQPPSPAAVPRPPSNPPARGT [TRAF3IP2] | 5.2 ± 0.12 | 5.17 ± 0.2 | – | –
46 | SLQTGNHSNGPTDLSMKGGASTTS [NOL4L] | 4.12 ± 0.25 | 4.31 ± 0.27 | – | –
47 | STYRKRTPVMEGYVEVKEGKTWKQ [LOXL2] | – | 3.92 ± 0.2 | – | –
48 | EAVTCGNTEVPARNLYAYIQKLTQ [PTPRD] | 2.81 ± 0.19 | 2.96 ± 0.36 | – | –
49 | LLRMCSHGEGKINYYNFVRAFSN [EFHC1] | – | – | 2.32 ± 0.66 | 2.08 ± 0.57
50 | KVRQLERDNAELEKLIQERSQQQE [KRT34] | 5.17 ± 0.22 | 5.28 ± 0.24 | – | –
51 | EVETEGPESADTGDKSESPDEANV [TOR1AIP2] | 5.32 ± 0.41 | 5.58 ± 0.3 | – | –
52 | MRHIRFLKNEVERLKKQLRAAQLQ [CCDC6] | 2.31 ± 0.25 | 2.23 ± 0.25 | – | –
53 | PAAPTPESFTVHFLPLNSAQTLHH [DNAAF3] | 2.87 ± 0.22 | 3.02 ± 0.23 | – | –
54 | CTEKFKTSRDRKDHMVRMHLYPAD [ZNF511] | 3.49 ± 0.38 | 3.48 ± 0.25 | – | –
55 | LGNGNDKKEMNKSDLNTNNLLFKP [KMT2E] | 4.65 ± 0.25 | 4.34 ± 0.32 | – | –
56 | WSPSPPATPEQGLSAFYLSYFDML [SPDEF] | 2.14 ± 0.45 | 2.33 ± 0.48 | – | –
57 | AIFWIVFLLLIVFYTAITKKIFKS [P2RY14] | 2.42 ± 0.6 | 2.27 ± 0.2 | – | –
58 | SLSGVMLTDVSPEPLQALLERASA [PRAME] | 3.61 ± 0.4 | 3.51 ± 0.31 | – | –
59 | LRDHADSNIVIMLVGNKSDLRHLR [RAB11A] | 2.36 ± 0.24 | 2.18 ± 0.38 | – | –
60 | RRHRLGGVGAVPGPGTPTGPSLPS [ZBTB22] | 4.25 ± 0.22 | 4.47 ± 0.16 | – | –
61 | KLAKVYSYAHGWMFQGWNCGDYFP [CPN1] | 2.52 ± 0.43 | 2.52 ± 0.38 | – | –
62 | TFASLIGPFGGFFASGFKRAFKIK [CDS1] | 2.66 ± 0.73 | 1.85 ± 0.26 | – | –
63 | MRMSDTVTVKDETATMKDLEAEVK [R3HDM1] | 5.46 ± 0.072 | 5.37 ± 0.092 | – | –
64 | EAKAVGLISHVLEQNQEGDAAYRK [AUH] | 5.22 ± 0.22 | 5.18 ± 0.28 | – | –
65 | TLPEYRVSVPENLPVGTQLLTVTA [PCDHGA10] | 3.36 ± 0.29 | 3.24 ± 0.3 | – | –

Reference: the supplement of paper PMC10567573
